From patent publication US20230241168A1 (ALPINE IMMUNE SCIENCES, published 2023)

T1: human CD80 (human, UniProt P33681 35-288)
T1 sequence (looked up): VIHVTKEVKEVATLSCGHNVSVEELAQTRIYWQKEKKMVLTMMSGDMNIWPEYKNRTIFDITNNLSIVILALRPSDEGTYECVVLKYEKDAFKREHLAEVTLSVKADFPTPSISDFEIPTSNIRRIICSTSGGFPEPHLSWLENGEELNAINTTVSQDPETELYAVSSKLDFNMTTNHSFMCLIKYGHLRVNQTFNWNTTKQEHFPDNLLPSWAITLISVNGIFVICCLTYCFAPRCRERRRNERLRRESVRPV

T2: human CD86 (human, UniProt P42081 24-329)
T2 sequence (looked up): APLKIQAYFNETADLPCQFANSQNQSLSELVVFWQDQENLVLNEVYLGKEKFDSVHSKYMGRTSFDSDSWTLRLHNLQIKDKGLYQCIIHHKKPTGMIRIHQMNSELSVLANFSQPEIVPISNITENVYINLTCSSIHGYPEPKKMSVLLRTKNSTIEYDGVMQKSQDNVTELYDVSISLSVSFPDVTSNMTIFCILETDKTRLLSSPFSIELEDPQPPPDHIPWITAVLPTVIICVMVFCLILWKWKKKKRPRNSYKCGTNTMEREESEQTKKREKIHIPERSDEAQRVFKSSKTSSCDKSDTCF

T3: recombinant human APRIL (human, UniProt O75888 105-250, limits assumed)
T3 sequence (looked up): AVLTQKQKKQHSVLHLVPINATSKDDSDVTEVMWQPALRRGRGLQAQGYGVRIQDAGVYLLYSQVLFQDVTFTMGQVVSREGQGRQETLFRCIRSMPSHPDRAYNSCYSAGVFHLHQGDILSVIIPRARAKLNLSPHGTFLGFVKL


Key:
Assay in all cases: cell-based or functional assay
human CD80 = molecular target: T1, human CD80
human CD86 = molecular target: T2, human CD86
recombinant human APRIL = molecular target: T3, recombinant human APRIL
recombinant human BAFF = recombinant human BAFF (human, UniProt Q9Y275 134-285)

| CD80 IC50 (human CD80) | CD86 IC50 (human CD86) | IC50 (nM) APRIL (recombinant human APRIL) | IC50 APRIL (Δ Parental vTD) (recombinant human APRIL) | IC50 (nM) BAFF (recombinant human BAFF) | IC50 BAFF (Δ Parental vTD) (recombinant human BAFF) | CD80 IC50 (Δ Parental CTLA-4) (human CD80) | CD86 IC50 (Δ Parental CTLA-4) (human CD86) | Binder |
| --- | --- | --- | --- | --- | --- | --- | --- | --- |
| 22.7 nM | 16.1 nM | 0.683 nM | 1 ratio | 6.27 nM | 1.2 ratio | – | – | CTLA-4 92 GSG4S Fc (G4S)2 BCMA 357 (Fc fusion) KAMHVAQPAVVLASSRGIASFVCEYASPWKATEVRVTVLRQADSQVTEVCAATYMMGSELTFPDDSICTGTSSGNQVNLTIRGLRAMDTGLYICKVEQMYPPPYLLGIGNGTQIYVIDPEPCPDSDGSGGGGSEPKSSDKTHTCPPCPAPEAEGAPSVFLFPPKPKDTLMISRTPEVTCVVVDVSHEDPEVKFNWYVDGVEVHNAKTKPREEQYNSTYRVVSVLTVLHQDWLNGKEYKCKVSNKALPAPIEKTISKAKGQPREPQVYTLPPSRDELTKNQVSLTCLVKGFYPSDIAVEWESNGQPENNYKTTPPVLDSDGSFFLYSKLTVDKSRWQQGNVFSCSVMHEALHNHYTQKSLSLSPGGGGGSGGGGSLQMAGQCSQNEYFDSLLYACIPCQLRCSSNTPPLTCQRYCNASVTNSVKGTNA |
| – | – | 0.687 nM | 0.7 ratio | 0.765 nM | 0.8 ratio | – | – | CTLA-4 92 GSG4S Fc (G4S)5 BCMA 357 (Fc fusion) KAMHVAQPAVVLASSRGIASFVCEYASPWKATEVRVTVLRQADSQVTEVCAATYMMGSELTFPDDSICTGTSSGNQVNLTIRGLRAMDTGLYICKVEQMYPPPYLLGIGNGTQIYVIDPEPCPDSDGSGGGGSEPKSSDKTHTCPPCPAPEAEGAPSVFLFPPKPKDTLMISRTPEVTCVVVDVSHEDPEVKFNWYVDGVEVHNAKTKPREEQYNSTYRVVSVLTVLHQDWLNGKEYKCKVSNKALPAPIEKTISKAKGQPREPQVYTLPPSRDELTKNQVSLTCLVKGFYPSDIAVEWESNGQPENNYKTTPPVLDSDGSFFLYSKLTVDKSRWQQGNVFSCSVMHEALHNHYTQKSLSLSPGGGGGSGGGGSGGGGSGGGGSGGGGSLQMAGQCSQNEYFDSLLYACIPCQLRCSSNTPPLTCQRYCNASVTNSVKGTNA |
| 26.1 nM | 11.9 nM | 1.27 nM | – | 0.282 nM | – | 0.8 ratio | 1.5 ratio | CTLA-4 186GSG4S-Fc-(G4S)4-BCMA 381 (Fc fusion) KAMHVAQPAVVLASSRGIASFVCEYASPWKATEVRVTVLRQADSQVTEVCAATYMMGNELTFLDDSICTGTSSGNQVNLTIQGLRAMDTGLYICKVEQMYPPPYLLGIGNGTQIYVIDPEPCPDSDGSGGGGSEPKSSDKTHTCPPCPAPEAEGAPSVFLFPPKPKDTLMISRTPEVTCVVVDVSHEDPEVKFNWYVDGVEVHNAKTKPREEQYNSTYRVVSVLTVLHQDWLNGKEYKCKVSNKALPAPIEKTISKAKGQPREPQVYTLPPSRDELTKNQVSLTCLVKGFYPSDIAVEWESNGQPENNYKTTPPVLDSDGSFFLYSKLTVDKSRWQQGNVFSCSVMHEALHNHYTQKSLSLSPGGGGGSGGGGSGGGGSGGGGSLQMAGQCSQNEYFDALLYACIPCQLRCSSNTPPLTCQQYCNASVTNSVKGTNA |
| 70.1 nM | 10.8 nM | 18.4 nM | – | 0.16 nM | – | 2.1 ratio | 1.3 ratio | CTLA-4 186GSG4S-Fc-(G4S)4-BCMA 405 (Fc fusion) KAMHVAQPAVVLASSRGIASFVCEYASPWKATEVRVTVLRQADSQVTEVCAATYMMGNELTFLDDSICTGTSSGNQVNLTIQGLRAMDTGLYICKVEQMYPPPYLLGIGNGTQIYVIDPEPCPDSDGSGGGGSEPKSSDKTHTCPPCPAPEAEGAPSVFLFPPKPKDTLMISRTPEVTCVVVDVSHEDPEVKFNWYVDGVEVHNAKTKPREEQYNSTYRVVSVLTVLHQDWLNGKEYKCKVSNKALPAPIEKTISKAKGQPREPQVYTLPPSRDELTKNQVSLTCLVKGFYPSDIAVEWESNGQPENNYKTTPPVLDSDGSFFLYSKLTVDKSRWQQGNVFSCSVMHEALHNHYTQKSLSLSPGGGGGSGGGGSGGGGSGGGGSLQMAGQCSQNEYFDSLLKACIPCQLRCSSNTPPLTCQRYCNASVTNSVKGTNA |
| 32.7 nM | 9 nM | 2.37 nM | – | 0.133 nM | – | 1 ratio | 1.1 ratio | CTLA-4 186GSG4S-Fc-(G4S)4-BCMA 411 (Fc fusion) KAMHVAQPAVVLASSRGIASFVCEYASPWKATEVRVTVLRQADSQVTEVCAATYMMGNELTFLDDSICTGTSSGNQVNLTIQGLRAMDTGLYICKVEQMYPPPYLLGIGNGTQIYVIDPEPCPDSDGSGGGGSEPKSSDKTHTCPPCPAPEAEGAPSVFLFPPKPKDTLMISRTPEVTCVVVDVSHEDPEVKFNWYVDGVEVHNAKTKPREEQYNSTYRVVSVLTVLHQDWLNGKEYKCKVSNKALPAPIEKTISKAKGQPREPQVYTLPPSRDELTKNQVSLTCLVKGFYPSDIAVEWESNGQPENNYKTTPPVLDSDGSFFLYSKLTVDKSRWQQGNVFSCSVMHEALHNHYTQKSLSLSPGGGGGSGGGGSGGGGSGGGGSLQMAGQCSQNEYFDSLLRACIPCQLRCSSNTPPLTCQRYCNASVTNSVKGTNA |
| – | – | 0.63 nM | 0.6 ratio | 3.75 nM | 3.8 ratio | – | – | CTLA-4 92 (G4S)4 BCMA 357 GSG4S Fc (Fc fusion) KAMHVAQPAVVLASSRGIASFVCEYASPWKATEVRVTVLRQADSQVTEVCAATYMMGSELTFPDDSICTGTSSGNQVNLTIRGLRAMDTGLYICKVEQMYPPPYLLGIGNGTQIYVIDPEPCPDSDGGGGSGGGGSGGGGSGGGGSLQMAGQCSQNEYFDSLLYACIPCQLRCSSNTPPLTCQRYCNASVTNSVKGTNAGSGGGGSEPKSSDKTHTCPPCPAPEAEGAPSVFLFPPKPKDTLMISRTPEVTCVVVDVSHEDPEVKFNWYVDGVEVHNAKTKPREEQYNSTYRVVSVLTVLHQDWLNGKEYKCKVSNKALPAPIEKTISKAKGQPREPQVYTLPPSRDELTKNQVSLTCLVKGFYPSDIAVEWESNGQPENNYKTTPPVLDSDGSFFLYSKLTVDKSRWQQGNVFSCSVMHEALHNHYTQKSLSLSPG |
| 82.6 nM | 9 nM | 2.49 nM | – | 0.153 nM | – | 2.5 ratio | 1.1 ratio | CTLA-4 186 GSG4S Fc (G4S)4 (TACI 542) (Fc fusion) KAMHVAQPAVVLASSRGIASFVCEYASPWKATEVRVTVLRQADSQVTEVCAATYMMGNELTFLDDSICTGTSSGNQVNLTIQGLRAMDTGLYICKVEQMYPPPYLLGIGNGTQIYVIDPEPCPDSDGSGGGGSEPKSSDKTHTCPPCPAPEAEGAPSVFLFPPKPKDTLMISRTPEVTCVVVDVSHEDPEVKFNWYVDGVEVHNAKTKPREEQYNSTYRVVSVLTVLHQDWLNGKEYKCKVSNKALPAPIEKTISKAKGQPREPQVYTLPPSRDELTKNQVSLTCLVKGFYPSDIAVEWESNGQPENNYKTTPPVLDSDGSFFLYSKLTVDKSRWQQGNVFSCSVMHEALHNHYTQKSLSLSPGGGGGSGGGGSGGGGSGGGGSSLSCRKEEGKFYDHLLQDCISCASICGQHPKQCAYFCENKLRS |
| – | – | 0.582 nM | 0.6 ratio | 0.415 nM | 0.4 ratio | – | – | BCMA 357 GSG4S Fc (G4S)3 CTLA-4 92 (Fc fusion) LQMAGQCSQNEYFDSLLYACIPCQLRCSSNTPPLTCQRYCNASVTNSVKGTNAGSGGGGSEPKSSDKTHTCPPCPAPEAEGAPSVFLFPPKPKDTLMISRTPEVTCVVVDVSHEDPEVKFNWYVDGVEVHNAKTKPREEQYNSTYRVVSVLTVLHQDWLNGKEYKCKVSNKALPAPIEKTISKAKGQPREPQVYTLPPSRDELTKNQVSLTCLVKGFYPSDIAVEWESNGQPENNYKTTPPVLDSDGSFFLYSKLTVDKSRWQQGNVFSCSVMHEALHNHYTQKSLSLSPGGGGGSGGGGSGGGGSGGGGSKAMHVAQPAVVLASSRGIASFVCEYASPWKATEVRVTVLRQADSQVTEVCAATYMMGSELTFPDDSICTGTSSGNQVNLTIRGLRAMDTGLYICKVEQMYPPPYLLGIGNGTQIYVIDPEPCPDSD |
| – | – | 0.689 nM | 0.7 ratio | 0.396 nM | 0.4 ratio | – | – | BCMA 357 (G4S)3 CTLA-4 92 GSG4S Fc (Fc fusion) LQMAGQCSQNEYFDSLLYACIPCQLRCSSNTPPLTCQRYCNASVTNSVKGTNAGGGGSGGGGSGGGGSGGGGSKAMHVAQPAVVLASSRGIASFVCEYASPWKATEVRVTVLRQADSQVTEVCAATYMMGSELTFPDDSICTGTSSGNQVNLTIRGLRAMDTGLYICKVEQMYPPPYLLGIGNGTQIYVIDPEPCPDSDGSGGGGSEPKSSDKTHTCPPCPAPEAEGAPSVFLFPPKPKDTLMISRTPEVTCVVVDVSHEDPEVKFNWYVDGVEVHNAKTKPREEQYNSTYRVVSVLTVLHQDWLNGKEYKCKVSNKALPAPIEKTISKAKGQPREPQVYTLPPSRDELTKNQVSLTCLVKGFYPSDIAVEWESNGQPENNYKTTPPVLDSDGSFFLYSKLTVDKSRWQQGNVFSCSVMHEALHNHYTQKSLSLSPG |
| – | – | 0.55 nM | 0.5 ratio | 0.548 nM | 0.6 ratio | – | – | CTLA-4 92 GSG4S Fc (G4S)3 BCMA 357 (Fc fusion) KAMHVAQPAVVLASSRGIASFVCEYASPWKATEVRVTVLRQADSQVTEVCAATYMMGSELTFPDDSICTGTSSGNQVNLTIRGLRAMDTGLYICKVEQMYPPPYLLGIGNGTQIYVIDPEPCPDSDGSGGGGSEPKSSDKTHTCPPCPAPEAEGAPSVFLFPPKPKDTLMISRTPEVTCVVVDVSHEDPEVKFNWYVDGVEVHNAKTKPREEQYNSTYRVVSVLTVLHQDWLNGKEYKCKVSNKALPAPIEKTISKAKGQPREPQVYTLPPSRDELTKNQVSLTCLVKGFYPSDIAVEWESNGQPENNYKTTPPVLDSDGSFFLYSKLTVDKSRWQQGNVFSCSVMHEALHNHYTQKSLSLSPGGGGGSGGGGSGGGGSLQMAGQCSQNEYFDSLLYACIPCQLRCSSNTPPLTCQRYCNASVTNSVKGTNA |
